# Laboratory results from IntAct's records for PubMed 25873389.
# B1: Protein deacetylase HDAC6 (Homo sapiens), Q9UBN7 (parent)
# chain: MTSTGQDSTTTRQRRSRQNPQSPPQDSSVTSKRNIKKGAVPRSIPNLAEVKKKGKMKKLGQAMEEDLIVGLQGMDLNLEAEALAGTGLVLDEQLNEFHCLWDDSFPEGPERLHAIKEQLIQEGLLDRCVSFQARFAEKEELMLVHSLEYIDLMETTQYMNEGELRVLADTYDSVYLHPNSYSCACLASGSVLRLVDAVLGAEIRNGMAIIRPPGHHAQHSLMDGYCMFNHVAVAARYAQQKHRIRRVLIVDWDVHHGQGTQFTFDQDPSVLYFSIHRYEQGRFWPHLKASNWSTTGFGQGQGYTINVPWNQVGMRDADYIAAFLHVLLPVALEFQPQLVLVAAGFDALQGDPKGEMAATPAGFAQLTHLLMGLAGGKLILSLEGGYNLRALAEGVSASLHTLLGDPCPMLESPGAPCRSAQASVSCALEALEPFWEVLVRSTETVERDNMEEDNVEESEEEGPWEPPVLPILTWPVLQSRTGLVYDQNMMNHCNLWDSHHPEVPQRILRIMCRLEELGLAGRCLTLTPRPATEAELLTCHSAEYVGHLRATEKMKTRELHRESSNFDSIYICPSTFACAQLATGAACRLVEAVLSGEVLNGAAVVRPPGHHAEQDAACGFCFFNSVAVAARHAQTISGHALRILIVDWDVHHGNGTQHMFEDDPSVLYVSLHRYDHGTFFPMGDEGASSQIGRAAGTGFTVNVAWNGPRMGDADYLAAWHRLVLPIAYEFNPELVLVSAGFDAARGDPLGGCQVSPEGYAHLTHLLMGLASGRIILILEGGYNLTSISESMAACTRSLLGDPPPLLTLPRPPLSGALASITETIQVHRRYWRSLRVMKVEDREGPSSSKLVTKKAPQPAKPRLAERMTTREKKVLEAGMGKVTSASFGEESTPGQTNSETAVVALTQDQPSEAATGGATLAQTISEAAIGGAMLGQTTSEEAVGGATPDQTTSEETVGGAILDQTTSEDAVGGATLGQTTSEEAVGGATLAQTTSEAAMEGATLDQTTSEEAPGGTELIQTPLASSTDHQTPPTSPVQGTTPQISPSTLIGSLRTLELGSESQGASESQAPGEENLLGEAAGGQDMADSMLMQGSRGLTDQAIFYAVTPLPWCPHLVAVCPIPAAGLDVTQPCGDCGTIQENWVCLSCYQVYCGRYINGHMLQHHGNSGHPLVLSYIDLSAWCYYCQAYVHHQALLDVKNIAHQNKFGEDMPHPH
# Variants of: B1
# Settings: with hdac9_mouse Hdac9, Q99N13
# Chain of hdac9_mouse Hdac9, Q99N13 (Q99N13 whole entry): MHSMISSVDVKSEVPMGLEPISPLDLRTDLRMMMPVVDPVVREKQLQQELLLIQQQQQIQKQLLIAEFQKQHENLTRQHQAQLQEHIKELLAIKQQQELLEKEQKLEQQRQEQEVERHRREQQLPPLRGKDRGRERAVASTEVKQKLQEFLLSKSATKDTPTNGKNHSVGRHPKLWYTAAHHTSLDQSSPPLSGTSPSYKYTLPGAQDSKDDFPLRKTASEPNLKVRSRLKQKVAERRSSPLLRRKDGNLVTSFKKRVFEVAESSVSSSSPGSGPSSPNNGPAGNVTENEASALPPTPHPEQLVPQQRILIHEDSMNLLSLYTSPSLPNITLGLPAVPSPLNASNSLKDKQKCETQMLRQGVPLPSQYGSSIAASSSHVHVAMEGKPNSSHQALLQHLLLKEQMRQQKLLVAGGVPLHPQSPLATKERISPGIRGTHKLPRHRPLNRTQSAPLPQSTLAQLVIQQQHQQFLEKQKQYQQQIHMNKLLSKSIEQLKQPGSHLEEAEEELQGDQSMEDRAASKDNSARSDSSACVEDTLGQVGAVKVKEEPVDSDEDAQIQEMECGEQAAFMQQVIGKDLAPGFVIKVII
row,effect of a mutation on the interaction,Variant
1,disrupting interaction strength,H216A;H611A
2,decreasing interaction strength,H216A
3,decreasing interaction strength,H611A
